Reference: patent US20250257130A1 (NONA BIOSCIENCES SUZHOU, published 2025)

Columns and labels:
[1] = target: T1, human ROR1 on cells (HEK293T-hROR1, PANC-1, A549) (human, UniProt Q01973 30-937); assay: flow cytometry, PANC-1 cells
T1 construct: whole, on cells; one molecule for the three cell lines; also called huROR1; cell surface ROR1
Method: (§1) In brief, anti-ROR1 antibodies were serially diluted in staining buffer (PBS containing 2% FBS). Antibody solution was incubated with 1×10⁵ cells at 4° C. for 1 hour. […] After 1-hour incubation at 4° C., cells were washed twice with staining buffer and subjected to flow cytometry. PR000374 (Bench marker 1) and non-relevant IgG isotype control (Crownbio) were used as positive and negative controls, respectively.
Binding activity of the variants to PANC-1 cells were tested using the same method described in example 5.1. The results were shown in FIGS. 7-8 and Table 11 and Table 12.

[2] = target: T1, human ROR1 on cells (HEK293T-hROR1, …); assay: flow cytometry on PANC-1 cells, MFI (Median-APC) [top panel]
[3] = target: T1, human ROR1 on cells (HEK293T-hROR1, …); assay: flow cytometry on PANC-1 cells, MFI (Median-APC) [middle panel, letter not given]
[4] = target: T1, human ROR1 on cells (HEK293T-hROR1, …); assay: flow cytometry on PANC-1 cells, MFI (Median-APC) [bottom panel, letter not given]
[5] = target: T1, human ROR1 on cells (HEK293T-hROR1, …); assay: flow cytometry, A549 cells
Method: as §1

[6] = target: T1, human ROR1 on cells (HEK293T-hROR1, …); assay: flow cytometry, PANC-1 cells; remark: listed apart in the source
Method: as §1

[7] = target: T2, Human ROR1-ECD-his (Acro Biosystems RO1-H522y) (human, UniProt Q01973 30-406); assay: ELISA, coated hu-ROR1-ECD-his
T2 construct: extracellular domain; bought protein; also called hROR1-ECD-his; hu-ROR1-ECD-his
Method: (§2) Binding of recombinant anti-ROR1 antibodies to hu-ROR1-ECD-his was tested by ELISA. In brief, 1 μg/mL hu-ROR1-ECD-his was added to the 96-well plate, 100 μL each well, incubated at 4° C. overnight, washing the plates with 1×PBST 3 times, 300 ul/well, blocking the plates with 2% BSA in 1×PBST, 200 ul/well at 37° C. for 1 hour, anti-ROR1 antibodies were serially diluted in staining buffer (PBS containing 2% BSA). Antibody solution was added to the plate and incubates at 37° C. for 1 hour, washing the plates with 1×PBST 3 times, 300 ul/well, adding secondary antibody 100 ul/well and incubate at 37° C. for 1 hour, washing the plates with 1×PBST 3 times, 300 ul/well and then add 100 ul/well TMB for about 5 min, stop the reaction by adding 100 ul/well 2M H₂SO₄, read the plates with Molecular device spectra max plus384 at 450 nm and 570 nm.

[8] = target: T1, human ROR1 on cells (HEK293T-hROR1, …); assay: flow cytometry, HEK293T-hROR1 cells
Method: as §1

[9] = target: T3, cynomolgus ROR1 on CHO-K1-cynoROR1 cells (cynomolgus monkey, UniProt A0A2K5WTX7 30-937); assay: flow cytometry, CHO-K1-cynoROR1 cells
T3 construct: whole, on cells
Method: as §1

[10] = target: T2, Human ROR1-ECD-his (Acro Biosystems …); assay: BLI, ROR1-His on HIS1K sensor, antibody in solution
Method: In the example, binding kinetics of anti-ROR1 antibodies to soluble ROR1 protein were analyzed by using Bio-Layer Interferometry (BLI) analysis on Fortebio Octet Red384 instrument (Fortebio).
In BLI analysis, recombinant anti-ROR1 antibodies was serially diluted with 10× kinetics buffer (Fortebio). Human ROR1-His proteins were diluted to 20 nM. Then the diluted antibodies, ROR1 proteins and regeneration buffer (10 mM glycine HCl pH 1.5) were added to 96-well plates (Greiner). Rate constants for association and dissociation were measured using HIS1K sensor (Fortebio). The sensor surface was regenerated after each binding experiment with regeneration buffer. The traces were processed using Octet Data Analysis Software (version 11.0, Pall ForteBio, CA, USA).

[11] = target: T2, Human ROR1-ECD-his (Acro Biosystems …); assay: ELISA, plate coated with hu-ROR1-his at 1 µg/mL
Method: as §2

[12] = target: T4, hu-ROR2-ECD-his (Acrobiosystems RO2-H52E5) (human, UniProt Q01974 34-403); assay: ELISA, plate coated with hu-ROR2-his at 1 µg/mL
T4 construct: extracellular domain; bought protein; also called Human ROR2 his-tagged protein; Human ROR2, His Tag
Method: as §2, with “1” for “Binding of recombinant anti-ROR1 antibodies to hu-ROR1-ECD-his was tested by ELISA. In brief, 1”, “hu-ROR2-ECD-his (Acrobiocystems, RO2-H52E5)” for “hu-ROR1-ECD-his”

[13] = target: T1, human ROR1 on cells (HEK293T-hROR1, …); assay: flow cytometry on HEK293T-hROR1 cells, MFI (Mean)
Method: Binding of recombinant anti-ROR1 antibodies to human or cynomolgus ROR1-overexpressing cells was tested by flow cytometry. In this example, ROR1-expressing cell lines are HEK293T cell lines that had been transfected to express human ROR1 on the surface (HEK293T-hu ROR1, KYINNO BIOTECHNOLOGY CO., LTD, Catalog #KC-1018), CHO-K1 cell lines that had been transfected to express cynomolgus ROR1 (CHOK1-cyno ROR1), PANC-1 (ATCC, catalog: CRL-1469) or A549 cell lines (Shanghai Institute of Biochemistry and Cell Biology, Chinese Academy of Sciences).
as §1

T1 sequence (Q01973 30-937): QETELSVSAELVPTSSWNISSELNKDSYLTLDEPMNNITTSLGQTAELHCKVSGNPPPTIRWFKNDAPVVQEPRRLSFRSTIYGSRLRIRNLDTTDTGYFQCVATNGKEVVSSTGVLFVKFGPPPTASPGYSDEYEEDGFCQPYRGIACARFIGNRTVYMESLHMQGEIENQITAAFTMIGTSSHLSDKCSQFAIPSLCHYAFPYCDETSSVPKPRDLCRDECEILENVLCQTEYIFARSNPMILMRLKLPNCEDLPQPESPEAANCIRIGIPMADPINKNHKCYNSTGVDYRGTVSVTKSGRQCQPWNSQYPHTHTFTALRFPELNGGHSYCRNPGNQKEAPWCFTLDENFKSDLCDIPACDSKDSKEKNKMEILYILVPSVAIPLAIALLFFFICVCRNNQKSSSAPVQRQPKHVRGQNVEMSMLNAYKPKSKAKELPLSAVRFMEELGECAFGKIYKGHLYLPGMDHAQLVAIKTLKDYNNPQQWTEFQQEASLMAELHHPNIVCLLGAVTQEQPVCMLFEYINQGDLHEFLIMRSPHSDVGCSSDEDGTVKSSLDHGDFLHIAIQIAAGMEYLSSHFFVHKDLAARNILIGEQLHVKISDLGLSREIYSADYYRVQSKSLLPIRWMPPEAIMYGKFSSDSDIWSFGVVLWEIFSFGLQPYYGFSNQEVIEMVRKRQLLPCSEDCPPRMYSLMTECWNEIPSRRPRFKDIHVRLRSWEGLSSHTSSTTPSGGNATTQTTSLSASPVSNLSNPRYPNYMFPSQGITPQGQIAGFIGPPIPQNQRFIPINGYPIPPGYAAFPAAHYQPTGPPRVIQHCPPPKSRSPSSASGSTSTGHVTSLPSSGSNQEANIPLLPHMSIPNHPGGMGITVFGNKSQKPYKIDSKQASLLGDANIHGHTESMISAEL
T2 sequence (Q01973 30-406): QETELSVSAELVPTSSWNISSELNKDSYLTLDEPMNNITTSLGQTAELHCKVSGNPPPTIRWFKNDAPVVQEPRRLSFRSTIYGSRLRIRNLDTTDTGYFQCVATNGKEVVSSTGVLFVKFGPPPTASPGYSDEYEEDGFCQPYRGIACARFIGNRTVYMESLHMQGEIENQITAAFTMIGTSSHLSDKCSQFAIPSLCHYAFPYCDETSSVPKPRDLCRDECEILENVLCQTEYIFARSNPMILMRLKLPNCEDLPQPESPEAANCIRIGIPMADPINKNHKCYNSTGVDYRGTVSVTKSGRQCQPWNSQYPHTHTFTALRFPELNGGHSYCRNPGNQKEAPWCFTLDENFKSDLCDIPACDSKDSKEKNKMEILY
T4 sequence (Q01974 34-403): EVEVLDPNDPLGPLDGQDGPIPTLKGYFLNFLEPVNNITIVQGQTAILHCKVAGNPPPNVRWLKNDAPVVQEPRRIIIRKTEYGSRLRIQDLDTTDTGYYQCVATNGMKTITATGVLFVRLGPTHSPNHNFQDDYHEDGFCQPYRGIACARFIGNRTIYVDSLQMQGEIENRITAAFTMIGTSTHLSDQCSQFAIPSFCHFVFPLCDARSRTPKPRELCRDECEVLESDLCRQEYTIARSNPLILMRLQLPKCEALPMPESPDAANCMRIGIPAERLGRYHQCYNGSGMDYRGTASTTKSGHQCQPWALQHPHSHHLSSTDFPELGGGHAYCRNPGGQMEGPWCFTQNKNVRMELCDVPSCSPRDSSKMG

| Binder | TOP [1] | EC50 (read off the curve) [2] [nM] | EC50 (read off the curve) [3] [nM] | further results |
| --- | --- | --- | --- | --- |
| PR007411 (antibody, V domains shown, bivalent form (HCAb) variant of PR005340, no light chain) VH: EVQLVESGGGLVKPGGSLRLSCAASGFTFSDFYMSWIRQAPGKGLEWISYISSSGSTIHYADSVKGRFTISRDNAKNSLYLQMNSLRAEDTAIYYCARDMPSSSSDWVDLQFDYWGQGTLVTVSS | 81400 | ~0.7 | – | – |
| PR007413 (antibody, V domains shown, bivalent form (HCAb) variant of PR005340, no light chain) VH: EVQLVESGGGLVKPGGSLRLSCAASGFTFSDFYMSWIRQAPGKGLEWISYINTRGSPIGYADSVKGRFTISRDNAKNSLYLQMNSLRAEDTAIYYCARDMPSSSSDWVDLQFDYWGQGTLVTVSS | 89800 | – | ~0.6 | – |
| PR007409 (antibody, V domains shown, bivalent form (HCAb) variant of PR005340, no light chain) VH: EVQLVESGGGLVKPGGSLRLSCAASGFTFSDFYMSWIRQAPGKGLEWISYISSSGSWIHYADSVKGRFTISRDNAKNSLYLQMNSLRAEDTAIYYCARDIPSSSSDWVDLQFDYWGQGTLVTVSS | 87400 | ~0.8 | – | – |
| PR007408 (antibody, V domains shown, bivalent form (HCAb) variant of PR005340, no light chain) VH: EVQLVESGGGLVKPGGSLRLSCAASGFTFSDFYMSWIRQAPGKGLEWISYISSSGSYIHYADSVKGRFTISRDNAKNSLYLQMNSLRAEDTAIYYCARDMPSSSSDWVDLQFDYWGQGTLVTVSS | 87000 | ~0.4 | – | – |
| PR007412 (antibody, V domains shown, bivalent form (HCAb) variant of PR005340, no light chain) VH: EVQLVESGGGLVKPGGSLRLSCAASGFTFSDFYMSWIRQAPGKGLEWISYISSSGSWIHYADSVKGRFTISRDNAKNSLYLQMNSLRAEDTAIYYCARDMPSSSSDWVSLQFDYWGQGTLVTVSS | 77200 | ~0.5 | – | – |
| PR007410 (antibody, V domains shown, bivalent form (HCAb) variant of PR005340, no light chain) VH: EVQLVESGGGLVKPGGSLRLSCAASGFTFSDFYMSWIRQAPGKGLEWISYISSSGSYIHYADSVKGRFTISRDNAKNSLYLQMNSLRAEDTAIYYCARDIPSSSSDWVDLQFDYWGQGTLVTVSS | 80300 | ~0.8 | – | – |
| PR303147 (antibody, human IgG1, V domains shown, HCAb (heavy chain-only, human IgG1 Fc), no light chain) VH: EVQLVESGGGLVQPGGSLRLSCAASGFTFSNFWMYWVRQAPGKGLVWVSRINSDGSSTNYADSVKGRFTISRDNAKNTLYLQMNSLRVEDTAVYSCAREGSGWYEDFDYWGQGTLVTVSS | – | – | – | EC50 [5]: 6.46 µg/mL; MAX(MFI) [5]: 412000 MFI; EC50 [6]: 7.77 µg/mL; MAX(MFI) [6]: 291000 MFI; EC50 [7]: 0.023 µg/mL; EC50 [8]: 0.325 µg/mL; MAX(MFI) [8]: 1.46e+07 MFI; EC50 [9]: 1.26 µg/mL; MAX(MFI) [9]: 3.67e+06 MFI; Kd [10]: 11.2 nM; koff [10]: 0.0165 s⁻¹; kon [10]: 1.47e+06 M⁻¹ s⁻¹; EC50 (read off the curve) [11]: ~0.02 µg/mL; binding result [12]: no binding (tested: about 15 µg/ml); EC50 (read off the curve) [13]: ~0.3 µg/mL |

Continued, in another order:

| TOP [1] | EC50 (read off the curve) [2] [nM] | EC50 (read off the curve) [3] [nM] | Binder | further results |
| --- | --- | --- | --- | --- |
| 82800 | – | ~0.4 | PR007415 (antibody, V domains shown, bivalent form (HCAb) variant of PR005340, no light chain) VH: EVQLVESGGGLVKPGGSLRLSCAASGFTFSDFYMSWIRQAPGKGLEWISYIDSSGRPLAYADSVKGRFTISRDNAKNSLYLQMNSLRAEDTAIYYCARDMPSSSSDWVDLQFDYWGQGTLVTVSS | – |
| 87600 | – | ~0.7 | PR007416 (antibody, V domains shown, bivalent form (HCAb) variant of PR005340, no light chain) VH: EVQLVESGGGLVKPGGSLRLSCAASGFTFSDFYMSWIRQAPGKGLEWISYINTRGSPIGYADSVKGRFTISRDNAKNSLYLQMNSLRAEDTAIYYCARDIPSSSSDWVDLQFDYWGQGTLVTVSS | – |
| 79500 | – | – | PR007420 (antibody, V domains shown, bivalent form (HCAb) variant of PR005340, no light chain) VH: EVQLVESGGGLVKPGGSLRLSCAASGFTFSDFYMSWIRQAPGKGLEWISYISSSGSTRYYADSVKGRFTISRDNAKNSLYLQMNSLRAEDTAIYYCARDMPSSSSDWVSLQFDYWGQGTLVTVSS | EC50 (read off the curve) [4]: ~0.7 nM |
| 81300 | – | ~0.4 | PR007418 (antibody, V domains shown, bivalent form (HCAb) variant of PR005340, no light chain) VH: EVQLVESGGGLVKPGGSLRLSCAASGFTFSDFYMSWIRQAPGKGLEWISYIDSSGRPLAYADSVKGRFTISRDNAKNSLYLQMNSLRAEDTAIYYCARDIPSSSSDWVDLQFDYWGQGTLVTVSS | – |
| 74500 | – | – | PR007423 (antibody, V domains shown, bivalent form (HCAb) variant of PR005340, no light chain) VH: EVQLVESGGGLVKPGGSLRLSCAASGFTFSDYYMSWIRQAPGKGLEWISYIDSSGRPLAYADSVKGRFTISRDNAKNSLYLQMNSLRAEDTAIYYCARDIPSSSSDWVDLQFDYWGQGTLVTVSS | EC50 (read off the curve) [4]: ~0.4 nM |
| 88900 | – | ~0.5 | PR007414 (antibody, V domains shown, bivalent form (HCAb) variant of PR005340, no light chain) VH: EVQLVESGGGLVKPGGSLRLSCAASGFTFSDFYMSWIRQAPGKGLEWISYISSSGSTRYYADSVKGRFTISRDNAKNSLYLQMNSLRAEDTAIYYCARDMPSSSSDWVDLQFDYWGQGTLVTVSS | – |
| 75700 | – | – | PR007419 (antibody, V domains shown, bivalent form (HCAb) variant of PR005340, no light chain) VH: EVQLVESGGGLVKPGGSLRLSCAASGFTFSDFYMSWIRQAPGKGLEWISYINTRGSPIGYADSVKGRFTISRDNAKNSLYLQMNSLRAEDTAIYYCARDMPSSSSDWVSLQFDYWGQGTLVTVSS | EC50 (read off the curve) [4]: ~0.8 nM |
| 73600 | – | – | PR007422 (antibody, V domains shown, bivalent form (HCAb) variant of PR005340, no light chain) VH: EVQLVESGGGLVKPGGSLRLSCAASGFTFSDFYMSWIRQAPGKGLEWISYIDSSGRPLAYADSVKGRFTISRDNAKNSLYLQMNSLRAEDTAIYYCARDIPSSSSDWVSLQFDYWGQGTLVTVSS | EC50 (read off the curve) [4]: ~0.6 nM |
